In patent US20080166364A1 (COVX TECHNOLOGY IRELAND, published 2008):
No end group written: not given here.

B1: Compound 21: Ang-2 binding peptide alone (peptide)
peptide: QKYQPLDELDKTLYDQFMLQQG-NH2
modifications: not fully specified (N-terminus); also: N-term acyl cap, acyl not given here
notes: not conjugated to linker or antibody
B2: Compound 23: Ang-2 binding peptide alone (peptide)
peptide: QNYQPLDELDKTLYDQFMLQQG-NH2
modifications: not fully specified (N-terminus); also: N-term acyl cap, acyl not given here
notes: as for B1
B3: Compound 22: Ang-2 binding peptide alone (peptide)
peptide: QXYQPLDELDKTLYDQFMLQQG
modifications: not fully specified; N-term acyl cap; C-term NH2 cap; AcK at 2
notes: as for B1

Key:
[1] = target: T1, human angiopoietin-2 protein (human, UniProt O15123 19-496); assay: competitive ELISA, coated Ang-2, 0.25 nM hTie-2-Fc; peptide alone
T1 construct: bought; also called Ang-2; Ang2
T1 sequence (looked up): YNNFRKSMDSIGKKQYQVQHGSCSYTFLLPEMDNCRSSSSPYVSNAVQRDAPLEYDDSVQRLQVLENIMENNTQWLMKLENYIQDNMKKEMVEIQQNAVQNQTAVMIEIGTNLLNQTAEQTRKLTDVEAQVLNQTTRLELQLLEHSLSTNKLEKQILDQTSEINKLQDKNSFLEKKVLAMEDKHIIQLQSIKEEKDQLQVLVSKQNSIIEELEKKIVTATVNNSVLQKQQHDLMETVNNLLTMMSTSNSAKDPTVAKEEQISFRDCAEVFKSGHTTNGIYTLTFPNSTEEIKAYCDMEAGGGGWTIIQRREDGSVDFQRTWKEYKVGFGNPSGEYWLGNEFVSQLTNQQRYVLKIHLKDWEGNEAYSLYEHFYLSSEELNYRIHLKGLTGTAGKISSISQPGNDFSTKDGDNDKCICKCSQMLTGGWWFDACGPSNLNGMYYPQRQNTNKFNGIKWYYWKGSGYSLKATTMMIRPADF
Description: For competitive ELISA, human angiopoietin-2 protein and Tie-2-Fc (R&D Systems) were reconstituted without carrier protein. Mouse anti-human Tie-2 (Pharmingen) was used as the primary antibody and goat anti-mouse-IgG1-HRP (Pierce) was used as the secondary antibody. TMB substrate from Pierce was used.
High-binding half-well plates were coated with Ang-2 (100 ng/well) in 50 μl PBS and incubated at 4° C. overnight. Plates were washed three times with washing buffer (0.1% Tween 20, PBS, pH 7.4) and blocked with Superblock (Scytek), 100 μl/well at room temperature (“RT”) for 1 hour. After removing the blocking solution, 50 μl of an Ang-2 binding peptide compound (1 uM and 5× serial dilution) in the presence of 0.25 nM hTie-2-Fc using Superblock as diluent was added and incubated at RT for 2 hours. Plates were washed 3 times with washing buffer. Then, 50 ul of 0.1 ug/ml mouse anti-human Tie-2 diluted in Superblock added and incubated at RT for 1 hour. Following incubation, 50 ul of 1:5,000 dilution of goat anti-mouse IgG-HRP in Superblock was then added and incubated at RT for one hour. After washing 3 times, 50 μl (25 μl TMB+25 μl H₂O₂) was added, and incubated for 3-5 minutes. Color development was monitored and stopped with 25 μl of 2 M H₂SO₄. OD450 nm with a correction wavelength of 540 nm was measured.

[2] = target: T1, human angiopoietin-2 protein; assay: reverse competitive ELISA, coated Tie-2-Fc, 0.83 nM Ang-2; peptide printed without linker, column headed P
Description: For reverse competition ELISA, human Tie-2-Fc, angiopoietin-2 protein, biotinylated anti-human Ang-2 antibody, and streptavidin HRP (R&D Systems) and TMB substrate from Pierce were used.
High-binding half-well plates were coated with Tie-2-Fc (50 ng/well) in 50 μl PBS and incubated at 4° C. overnight. Plates were washed three times with washing buffer (0.1% Tween 20, PBS, pH 7.4) and blocked with Superblock, 150 μl/well at RT for 1 hour. Plates were washed three times. Following washing, 50 μl of an Ang-2 binding peptide compound (50 nM, 5× serial dilution) in the presence of 50 ng/ml (0.83 nM) Ang-2 in Superblock were added and incubated at RT for 1 hour. Plates were washed 3 times, 50 μl of 1 μg/well biotinylated anti-Ang-2 detection antibody in Superblock was added and incubated at RT for 2 hours. Plates were washed 3 times, and 50 μl of streptavidin HRP (1:200 dilution in Superblock) was added at RT for 20 minutes. Plates were washed 3 times, and 50 μl (25 μl TMB+25 μl H₂O₂) substrate solution was added and incubated for 20-30 minutes. Color development was stopped with 25 μl of 2 M H₂SO₄. OD450 nm with a correction wavelength of 540 nm was measured.

Binder	IC50 [1] [nM]	IC50 [2] [nM]
B1	25.8	36.4
B2	27.8	
B3		14.4
